The results in this text go back to patent US20090311257A1 (XOMA TECHNOLOGY, published 2009).

The Kd is the equilibrium constant for the complex coming apart.

B2: human gastrin (h-G17) (ligand, UniProt P01350 76-92, looked up)
peptide: QGPWLEEEEEAYGWMDF

Experiment [1] concerns the target B2. Nature of the experiment: cell-based or functional assay.
The target in experiment [2] is T1, CCK2R on the CCK2R overexpressing cell line AGS-TR (UniProt P32239 1-447, limits assumed).
T1 sequence (looked up): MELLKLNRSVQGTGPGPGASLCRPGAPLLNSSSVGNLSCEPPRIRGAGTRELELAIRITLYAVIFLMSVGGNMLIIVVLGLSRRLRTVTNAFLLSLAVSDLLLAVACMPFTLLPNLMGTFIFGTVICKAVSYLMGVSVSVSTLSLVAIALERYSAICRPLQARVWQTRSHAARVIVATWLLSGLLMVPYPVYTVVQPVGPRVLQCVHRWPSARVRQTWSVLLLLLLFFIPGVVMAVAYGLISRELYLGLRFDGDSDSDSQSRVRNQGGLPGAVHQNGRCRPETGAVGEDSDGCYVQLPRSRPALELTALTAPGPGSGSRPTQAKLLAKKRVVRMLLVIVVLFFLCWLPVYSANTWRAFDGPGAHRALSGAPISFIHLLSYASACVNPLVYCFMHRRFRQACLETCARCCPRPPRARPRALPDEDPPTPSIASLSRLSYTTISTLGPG
Nature of the experiment: cell-based or functional assay.

For experiment [3], the target named is B2. Nature of the experiment: cell-based or functional assay.
Experiment [4] concerns the target B2. Nature of the experiment: KD measurement of reformatted IgG; method and antigen form not stated in the example.
Experiment [5] has as its target T2, biotinylated 10 amino acid peptide from the N terminal portion of Gastrin 17 (human, UniProt P01350 76-85, limits assumed, ends and bridges not checked).
T2 construct: domain: 10 amino acid peptide from the N terminal portion of Gastrin 17; Panning target; also called biotinylated peptide; biotinylated peptides
T2 peptide (looked up): QGPWLEEEEE-biotin
Kind of experiment: SPR (BIACORE 2000), antibody over low-density biotinylated peptide on streptavidin chip; from kinetic rate constants; parental fragment, Table 3 comparator to the matured fragments. As for the experimental part: (§1) Affinities of the parental (XPA067) and matured antibody fragments were determined by surface plasmon resonance using a BIACORE® 2000. Affinity constants were calculated from the kinetic rate constants for antibody binding to biotinylated peptide immobilized on a Streptavidin sensor chip.
(§2) A very low density of peptide was immobilized in order to avoid bivalent binding by the antibodies to the sensor chip. Antibodies were tested in triplicate at six concentrations of three-fold serial dilutions. Data were analyzed using BiaEval Software.

The target of experiment [6] is B2. Kind of experiment: summary sentence of the filing's own data; method not given; antibody not named.
The target of experiment [7] is T2, biotinylated 10 amino acid peptide from …. Kind of experiment: SPR, measured as described previously (BIACORE, biotinylated peptide on streptavidin chip); reformatted IgG. As for the experimental part:
as §1, §2
Antibody affinity was measured as described previously.

The target of experiment [8] is B2. Kind of experiment: KD measurement of reformatted IgG; method and antigen form not stated in the example; reformatted IgG, Table 2 lead selection.

Where no end group is shown, it is not given here. A value given as a limit tells only on which side of the number the result lay.

B1: XPA065 (phage display-derived antibody fragment) (antibody, V domains shown)
VH: EVQLVQSGAEVKKPGSSVTVSCKASGGTFDKYAIGWVRQAPGQGLEWMGRIIPTLDLANSAQKFQDRVTITADKFTTTVYMELTNLRPEDTAMYYCTRDPLYNWSGSYWGRGTMVTVSS
VL: QAVLTQPSSLSASPGTSASLTCTLRSGINVGSYRIYWYQQRPGSPPQYLLRYKSDSDKQQGSGVPSRFSGSKDASANAGVLFISGLQSDDEADYYCMIWHNSAWVFGGGTKLTVL
For B1, in the experiment with human gastrin (h-G17) [1], the “Ca flux neutralization at 2x molar excess” value was < 20% and the “Ca flux neutralization at roughly 100 fold molar excess over gastrin (1 nM)” value is ~80%.

Consider B2, for which the “calcium flux EC50 (AGS-TR cells)” value in experiment [2] was 1 nM.

B3: XPA061 (phage display-derived antibody fragment) (antibody, V domains shown)
VH: QVQLVQSGAEVKKPGSSVKVSCKISGGTFSSHAIGWVRQAPGQGLEWIGRIIPSLDLDNSAPKFQDRVTITADKFTNTAYMELRNLRPEDTAFYYCTGDPLYNWTGAHWGRGTMVTVSS
VL: QAVLTQPSSLSASPGASASLTCTLRSDINVGTYRIYWYQQKSGSPPQYLLRYRSDSDKQQGSGVPSRFSGSKDASANAGILLISGLQSEDEADYYCMIWHSSAWVFGGGTKVTVL
For B3, in the experiment with human gastrin (h-G17) [1], the “Ca flux neutralization at 2x molar excess” value was ~70% and the “Ca flux neutralization at roughly 100 fold molar excess over gastrin (1 nM)” value is ~80%.

B4: XPA081 (phage display-derived antibody fragment) (antibody, V domains shown)
VH: EVQLVQSGAEVKKPGSSVTVSCKASGGTFDKYAIGWVRQAPGQGLEWMGRIIPSLDLDNSAQKFQDRVTITADKFTTTVYMKLSNLRPEDTAIYYCTRDPLYQWSGSYWGKGTLVTVSS
VL: QAVLTQPSSLSASPGASASLTCTLRSDINVGTYRIYWYQQKPGSPPQYLLRYKSDSDKQQGSGVPSRFSGSKDASANAGILLISGLQSGDGADYYCMIWHSSAWVFGGGTKLTVL
On to B4, for which, in the experiment with human gastrin (h-G17) [1], the “Ca flux neutralization at 2x molar excess” value is < 20% and the “Ca flux neutralization at roughly 100 fold molar excess over gastrin (1 nM)” value was ~80%.

B5: XPA063 (phage display-derived antibody fragment) (antibody, V domains shown)
VH: EVQLVQSGAEVKKPGSSVTVSCKASGGTFDKYAIGWVRQAPGQGLEWMGRIIPSLDLDNSAQKFQDRVTITADKFTTTVYMKLSNLRPEDTAMYYCTRDPLYNWSGSYWGRGTMVTVSS
VL: QAVLTQPSSLSASPGASASLTCTLRSGINVGTYRIYWYQQKPGSPPQYLLRYKSDSDKQQGSGVPSRFSGSKDASANAGILLISGLQSEDEADYYCMIWHSSAWVFGGGTKLTVL
Turning to B5, in the experiment with human gastrin (h-G17) [1], the “Ca flux neutralization at 2x molar excess” value was < 20% and the “Ca flux neutralization at roughly 100 fold molar excess over gastrin (1 nM)” value is > 70%.

B6: XPA061 reformatted whole human IgG (antibody, V domains shown)
VH: QVQLVQSGAEVKKPGSSVKVSCKISGGTFSSHAIGWVRQAPGQGLEWIGRIIPSLDLDNSAPKFQDRVTITADKFTNTAYMELRNLRPEDTAFYYCTGDPLYNWTGAHWGRGTMVTVSS
VL: QAVLTQPSSLSASPGASASLTCTLRSDINVGTYRIYWYQQKSGSPPQYLLRYRSDSDKQQGSGVPSRFSGSKDASANAGILLISGLQSEDEADYYCMIWHSSAWVFGGGTKVTVL
Regarding B6, in the experiment with human gastrin (h-G17) [3], the “Ca Flux IC50” value is 1.34 nM and the “pERK IC50 (nM)” value is 0.42 nM. The Kd in the experiment with human gastrin (h-G17) [4] was found to be 9.9 nM.

B7: XPA067 (parental antibody fragment) (antibody, V domains shown)
VH: EVQLVQSGAEVKKPGSSVTVSCKASGGTFDKYAIGWVRQAPGQGLEWMGRIIPTLDLANSAQKFQDRVTITADKFTTTVYMELTNLRPEDTAMYYCTRDPLYNWSGSYWGRGTMVTVSS
VL: QAVLTQPSSLSASPGASASLTCTLRSGINVGTYRIYWYQQKPGSPPQYLLRYKSDSDKQQGSGVPSRFSGSKDASANAGILLISGLQSEDEADYYCMIWHSSAWVFGGGTKLTVL
notes: also called parental (XPA067)
Consider B7, for which, in the experiment with human gastrin (h-G17) [1], the “Ca flux neutralization at 2x molar excess” value was < 20% and the “Ca flux neutralization at roughly 100 fold molar excess over gastrin (1 nM)” value was ~80%. In experiment [5], the Kd is ~5 nM.

B8: a monoclonal antibody with affinity of about 10^-9 M (anti-gastrin, not named in the sentence) (antibody, V domains shown)
VH: EVQLVQSGAEVKKPGSSVTVSCKASGGTFDKYAIGWVRQAPGQGLEWMGRIIPTLDLANSAQKFQDRVTITADKFTTTVYMELTNLRPEDTAMYYCTRDPLYNWSGSYWGRGTMVTVSS
VL: QAVLTQPSSLSASPGASASLTCTLRSGINVGTYRIYWYQQKPGSPPQYLLRYKSDSDKQQGSGVPSRFSGSKDASANAGILLISGLQSEDEADYYCMIWHSSAWVFGGGTKLTVL
In the case of B8, in the experiment with human gastrin (h-G17) [6], the Kd was ~1 nM.

B9: XPA067 reformatted whole human IgG (antibody, V domains shown)
VH: EVQLVQSGAEVKKPGSSVTVSCKASGGTFDKYAIGWVRQAPGQGLEWMGRIIPTLDLANSAQKFQDRVTITADKFTTTVYMELTNLRPEDTAMYYCTRDPLYNWSGSYWGRGTMVTVSS
VL: QAVLTQPSSLSASPGASASLTCTLRSGINVGTYRIYWYQQKPGSPPQYLLRYKSDSDKQQGSGVPSRFSGSKDASANAGILLISGLQSEDEADYYCMIWHSSAWVFGGGTKLTVL
notes: also called parent antibody XPA067; parental a-gastrin mAb
For B9, in the experiment with human gastrin (h-G17) [3], the “Ca Flux IC50” value is 0.76 nM and the “pERK IC50 (nM)” value came to 0.56 nM. Besides, the Kd in experiment [7] was ~5 nM. The molecule further had a dissociation constant Kd with human gastrin (h-G17) [8] of 3.9 nM.
